Reference: the RNAGym collection of RNA variant scans (doi:10.7554/elife.80360)

B1: Hammerhead Ribozyme (parent)
chain: ACCGGAUGUGCUUUCCGGUCUGAUGAGUCCGUGAGGACGAAACAG

Variants of: B1
Assay: self-cleavage, relative activity (ratio to wild type); higher = more cleavage; co-transcriptional

| Variant | self-cleavage |
| --- | --- |
| U9C C16G | 0.626 |
| U12C A34U | 0.668 |
| A41C A42U | 0.235 |
| U9C G25C | 0.294 |
| C16U U28G | 0.798 |
| C15G C30A | 0.653 |
| U14A A34G | 0.73 |
| C38A A40C | 0.411 |
| A6C U32C | 0.838 |
| A1G G33A | 1.53 |
| U14G G27C | 0.618 |
| U32A G35U | 0.985 |
| G17U G45C | 0.513 |
| A6C C20G | 0.335 |
| A41G A42C | 0.294 |
| A6G G18U | 0.468 |
| A26C A40U | 0.352 |
| U14C G36U | 0.455 |
| A1C C16U | 0.347 |
| G27C A37G | 0.677 |
| G10U G33C | 1.1 |
| G10U U12G | 0.773 |
| U7A G27A | 0.66 |
| G31U A44U | 0.94 |

| Variant | self-cleavage |
| --- | --- |
| G5U U24G | 0.636 |
| U28A C43G | 0.336 |
| U28C C29G | 0.583 |
| A1U A44U | 0.425 |
| A6C C30U | 0.51 |
| U7A G35U | 0.751 |
| U13A G27A | 0.873 |
| U7C C20U | 0.492 |
| C2A U24G | 0.644 |
| C20G C43U | 0.298 |
| A34U C43A | 0.393 |
| G4U G25U | 0.253 |
| C29U A41C | 0.319 |
| U32G A44U | 0.477 |
| U7A A41U | 0.258 |
| U32A G45C | 0.593 |
| A23C U32A | 0.466 |
| C15A G27C | 0.435 |
| A23G G33U | 0.458 |
| A26G A40G | 0.328 |
| U9C G35A | 0.814 |
| A1G G35C | 1.04 |
| A6G U28C | 0.792 |
| U32A A44G | 1.41 |

| Variant | self-cleavage |
| --- | --- |
| G10C G25C | 0.397 |
| C11A A34C | 0.731 |
| C38A G45U | 0.461 |
| U28C A37C | 0.467 |
| U19A C30A | 0.294 |
| A6C G22U | 0.39 |
| A41U A42C | 0.271 |
| A23C A41U | 0.361 |
| A26U A37C | 0.509 |
| G36U A40U | 0.281 |
| C15G C38G | 0.386 |
| C3G C15G | 0.314 |
| G5C G45A | 0.384 |
| A6C A40C | 0.386 |
| U24A A26C | 0.602 |
| G27A G35C | 0.438 |
| U28G C30A | 0.408 |
| U14C C16A | 0.931 |
| G10A C15A | 0.927 |
| U7C G39C | 0.331 |
| A26C G35C | 0.489 |
| G4U C43U | 0.261 |
| G4U C43A | 0.272 |
| C3A U28A | 0.311 |

| Variant | self-cleavage |
| --- | --- |
| C16A G33A | 1.29 |
| C11U U13A | 1.34 |
| U12G C29A | 0.643 |
| G22U A26G | 0.346 |
| A42G G45A | 0.306 |
| G10U A44U | 0.686 |
| C29G A37C | 0.759 |
| U28G A40U | 0.323 |
| G8A G35U | 0.588 |
| G8A G35C | 0.543 |
| U7G C11A | 1.6 |
| U13A G35A | 0.89 |
| C2G U32G | 0.379 |
| U7G A37G | 0.928 |
| C3U A44C | 0.522 |
| U12A G39C | 0.338 |
| A26G A41G | 0.284 |
| C20U A34G | 0.407 |
| C16G C43G | 0.265 |
| U7G G39A | 0.369 |
| G36U A41C | 0.309 |
| G22U A34G | 0.308 |
| G25C G36A | 0.305 |
| A23C G35U | 0.408 |

| Variant | self-cleavage |
| --- | --- |
| G8A C43G | 0.344 |
| C16A | 1.21 |
| G22U G25A | 0.269 |
| G8U C16U | 1.27 |
| G8U A34G | 0.927 |
| G17C G22C | 0.326 |
| A1U A34G | 0.596 |
| C20G G36A | 0.31 |
| A1U U28A | 0.3 |
| C3U C11U | 0.504 |
| U21C G22U | 0.277 |
| G36U G39C | 0.34 |
| U21G C43U | 0.317 |
| A34C A44C | 0.341 |
| C20U A41C | 0.373 |
| A34G A44G | 1.23 |
| A34G A44U | 0.526 |
| G10C A44G | 1.44 |
| G18C U19A | 0.349 |
| A6U A23U | 0.311 |
| C43U | 0.608 |
| C2A C16G | 0.363 |
| U32G G33A | 0.843 |
| U21G G31C | 0.577 |

| Variant | self-cleavage |
| --- | --- |
| A34U A42C | 0.3 |
| G35A A42C | 0.354 |
| U24C U32C | 1.2 |
| G33C A44U | 0.512 |
| C2G G4A | 0.322 |
| A26C U32C | 0.803 |
| A6U A37U | 0.451 |
| A6G C15A | 0.707 |
| A6U U19G | 0.395 |
| U24C G39A | 0.337 |
| G4A U12G | 0.541 |
| G22A G45U | 0.383 |
| C16U A44G | 1.34 |
| G8C G17A | 0.663 |
| G25U G35A | 0.282 |
| A1U G22U | 0.33 |
| U13C U14A | 0.621 |
| U14G C43G | 0.416 |
| G27C G33U | 0.686 |
| U9G C43U | 0.339 |
| G4U U32C | 0.487 |
| G33C G36C | 0.451 |
| G5A C30G | 0.597 |
| U24A C43G | 0.374 |

| Variant | self-cleavage |
| --- | --- |
| G10A C29G | 0.853 |
| U13G A37C | 0.96 |
| C30A G35A | 0.765 |
| U24G U28G | 0.885 |
| U32G G36C | 0.464 |
| C11A A40C | 0.587 |
| G18C G35C | 0.35 |
| U19G A40C | 0.294 |
| G10A G39C | 0.45 |
| U14G G35C | 0.509 |
| A23C C43U | 0.325 |
| A23G G35C | 0.279 |
| C11G A41U | 0.382 |
| G35U A37G | 0.679 |
| A34U A41U | 0.281 |
| G18U C43U | 0.402 |
| G18U C43G | 0.373 |
| C2A G27A | 0.438 |
| U28A G39U | 0.301 |
| G18A A41U | 0.358 |
| U12C G35C | 0.617 |
| A37C C38A | 0.535 |
| U7G A44C | 0.411 |
